Measured values: PMC7763487 (2020)

B1: (Flag)3-TET1 full-length Δ1+2 (Δ109–120 + Δ1132–1202) [mouse] / (HA)3-NANOG [mouse] (parent complex)
chain 1: MSRSRPAKPSKSVKTKLQKKKDIQMKTKTSKQAVRHGASAKAVNPGKPKQLIKRRDGKKETEDKTPTPAPSFLTRAGAARMNRDRNQVLFQNPDSLTCNGFTMALRRTTPKPKKVPPSKKQCTHNIQDEPGVKHSENDSVPSQHATVSPGTENGEQNRCLVEGESQEITQSCPVFEERIEDTQSCISASGNLEAEISWPLEGTHCEELLSHQTSDNECTSPQECAPLPQRSTSEVTSQKNTSNQLADLSSQVESIKLSDPSPNPTGSDHNGFPDSSFRIVPELDLKTCMPLDESVYPTALIRFILAGSQPDVFDTKPQEKTLITTPEQVGSHPNQVLDATSVLGQAFSTLPLQWGFSGANLVQVEALGKGSDSPEDLGAITMLNQQETVAMDMDRNATPDLPIFLPKPPNTVATYSSPLLGPEPHSSTSCGLEVQGATPILTLDSGHTPQLPPNPESSSVPLVIAANGTRAEKQFGTSLFPAVPQGFTVAAENEVQHAPLDLTQGSQAAPSKLEGEISRVSITGSADVKATAMSMPVTQASTSSPPCNSTPPMVERRKRKACGVCEPCQQKANCGECTYCKNRKNSHQICKKRKCEVLKKKPEATSQAQVTKENKRPQREKKPKVLKTDFNNKPVNGPKSESMDCSRRGHGEEEQRLDLITHPLENVRKNAGGMTGIEVEKWAPNKKSHLAEGQVKGSCDANLTGVENPQPSEDDKQQTNPSPTFAQTIRNGMKNVHCLPTDTHLPLNKLNHEEFSKALGNNSSKLLTDPSNCKDAMSVTTSGGECDHLKGPRNTLLFQKPGLNCRSGAEPTIFNNHPNTHSAGSRPHPPEKVPNKEPKDGSPVQPSLLSLMKDRRLTLEQVVAIEALTQLSEAPSESSSPSKPEKDEEAHQKTASLLNSCKAILHSVRKDLQDPNVQGKGLHHDTVVFNGQNRTFKSPDSFATNQALIKSQGYPSSPTAEKKGAAGGRAPFDGFENSHPLPIESHNLENCSQVLSCDQNLSSHDPSCQDAPYSQIEEDVAAQLTQLASTINHINAEVRNAESTPESLVAKNTKQKHSQEKRMVHQKPPSSTQTKPSVPSAKPKKAQKKARATPHANKRKKKPPARSSQENDQKKQEQLAKEKVKVEPSDSLPTCQFKTESGGQTFAEPADNSQGQPMVSVNQEAHPLPQSPPSNQCANIMAGAAQTQFHLGAQENLVHQIPPPTLPGTSPDTLLPDPASILRKGKVLHFDGITVVTEKREAQTSSNGPLGPTTDSAQSEFKESIMDLLSKPAKNLIAGLKEQEAAPCDCDGGTQKEKGPYYTHLGAGPSVAAVRELMETRFGQKGKAIRIEKIVFTGKEGKSSQGCPVAKWVIRRSGPEEKLICLVRERVDHHCSTAVIVVLILLWEGIPRLMADRLYKELTENLRSYSGHPTDRRCTLNKKRTCTCQGIDPKTCGASFSFGCSWSMYFNGCKFGRSENPRKFRLAPNYPLHNYYKRITGMSSEGSDVKTGWIIPDRKTLISREEKQLEKNLQELATVLAPLYKQMAPVAYQNQVEYEEVAGDCRLGNEEGRPFSGVTCCMDFCAHSHKDIHNMHNGSTVVCTLIRADGRDTNCPEDEQLHVLPLYRLADTDEFGSVEGMKAKIKSGAIQVNGPTRKRRLRFTEPVPRCGKRAKMKQNHNKSGSHNTKSFSSASSTSHLVKDESTDFCPLQASSAETSTCTYSKTASGGFAETSSILHCTMPSGAHSGANAAAGECTGTVQPAEVAAHPHQSLPTADSPVHAEPLTSPSEQLTSNQSNQQLPLLSNSQKLASCQVEDERHPEADEPQHPEDDNLPQLDEFWSDSEEIYADPSFGGVAIAPIHGSVLIECARKELHATTSLRSPKRGVPFRVSLVFYQHKSLNKPNHGFDINKIKCKCKKVTKKKPADRECPDVSPEANLSHQIPSRVASTLTRDNVVTVSPYSLTHVAGPYNRWV
chain 2: MSVGLPGPHSLPSSEEASNSGNASSMPAVFHPENYSCLQGSATEMLCTEAASPRPSSEDLPLQGSPDSSTSPKQKLSSPEADKGPEEEENKVLARKQKMRTVFSQAQLCALKDRFQKQKYLSLQQMQELSSILNLSYKQVKTWFQNQRMKCKRWQKNQWLKTSNGLIQKGSAPVEYPSIHCSYPQGYLVNASGSLSMWGSQTWTNPTWSSQTWTNPTWNNQTWTNPTWSSQAWTAQSWNGQPWNAAPLHNFGEDFLQPYVQLQQNFSASDLEVNLEATRESHAHFSTPQALELFLNYSVTPPGEI

Variants of: B1
Assay: co-immunoprecipitation (anti-Flag IP), quantified immunoblot; E14/T ESCs; parent: 0.29; read off a plot

| screen value | Variant |
| --- | --- |
| ~0.065 | chain 1 F1440A, chain 1 F1442A, chain 1 W1446A, chain 1 Y1449A, chain 1 F1450A, chain 1 F1455A, chain 1 F1464A |
